Laboratory results from the supplement of paper PMC9170038.

Test system: MS2 coat protein
Assay: apparent KD of MS2 coat protein; designed switch direction (-1 OFF switch, 1 ON switch): 1; higher = weaker reporter binding
Procedure, shortened: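 An oligonucleotide input, 200 uM small-molecule ligand, or no input was present during titration of SNAP-549-labelled MS2 coat protein, which was doubled from 0.7 or 1.5 nM to 3 µM. Designed RNA switches had been transcribed on Illumina chips by stalled E. coli RNA polymerase. Apparent KD per design is the median over clusters of curves fitted to normalised cluster fluorescence.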

[1] = input ligand: microRNA oligo, concentration not stated
[2] = Eterna round: R95, input ligand: FMN 200 uM
[3] = Eterna round: R95, input ligand: microRNA oligo, concentration not stated
[4] = Eterna round: R95, input ligand: none

Sequence	apparent KD of MS2 coat protein (input ligand: FMN 200 uM) [nM]	apparent KD of MS2 coat protein [1] [nM]	apparent KD of MS2 coat protein (input ligand: none) [nM]	apparent KD of MS2 coat protein [2] [nM]	apparent KD of MS2 coat protein [3] [nM]	apparent KD of MS2 coat protein [4] [nM]
CUUUUUCACUAUACAUGAGGAUCACCCAUGUUAUCAUCAUGAGAGGAUAUCGUAAUAGGAUUUUUCGAGAAGGCUCUAAAGUAU [JR_SSNG3_Sub079] (Eterna round: R96, puzzle: Same State NG 3)	26.3	43	45			
GAAACAUGACGAGGAUAUGGAACAUGAGGAUCACCCAUGUAUGUUCCAUAACGCGAAUGACGAAUCCAGAAGGCGUCGUGAAAG [Mat - Same State NG 2 - JL mod - D28] (Eterna round: R96, puzzle: Same State NG 2)	33.6	177	233			
GAAACAUGACGAGGAUAUGGUACAUGAGGAUCACCCAUGUAUGUACCACGACGCGUACGUCGAAUCCAGAAGGCGUCGUGAAAG [Mat - Same State NG 2 - JL mod - D20] (Eterna round: R96, puzzle: Same State NG 2)	27.8	51.1	86.4			
GAAAGGCCUACAGGAUAUACCACAGUCUUGUCGGUAGAAGGGUGGGACAUGAGGAUCACCCAUGUACACUCCCAGAUGGGAGUG [Ergeesis] (Eterna round: R96, puzzle: Same State NG 1)	767	135	476			
GAAUAGUUGAGAGGAUAUGGAUUAUUGUAGGAUCCAGAAGGUUUUAACAUGAGGAUCACCCAUGUAGGACUAUAUAUGUGAAUA [Parity 97 - Jieux - Same State NG 1] (Eterna round: R96, puzzle: Same State NG 1)	13.1	11.7	19.5			
GACAAUCUAUCUGAGGAUAUCAUGAAGAAAACAUGAGGAUCACCCAUGUGCAGGAUAACUGCAAAUGAGAAGGCAGAUAGAUUGG [Mat - Same State 2 - Mod - D3] (puzzle: Same State 2)				10.9	16.8	20
GACCAACAUGAGGAUCACCCAUGUUUCUGAGGCACAGGAUAUCGACAGGCAAGACACCUGCGAGAAGGGUGACCUC [Same State 1 - Mod of Vinnie Diatater v.3] (puzzle: Same State 1)				49.2	38.8	30.2
GAGAAGAGGGACAAGGAUAUGUCAGGAGAGACAUGAGGAUCACCCAUGUAGAGGUUGGAGGAGAGACAGAAGGUGUCGAGAGCGA [JR_SS2_Sub014] (puzzle: Same State 2)				123	143	361
GAGAGAGGAAGCGAGGAUAUCGUGUUAGGUACAUGAGGAUCACCCAUGUUGUAGGUAGAGGUAGGCGAGAAGGCGCAGGAGAGGU [JR_SS2_Sub095] (puzzle: Same State 2)				26.7	26.4	32.2
GAGAGAGGGUGAGGAUAUUCAGUAAUAAUGAUAGAAGAAGGCACAGACAUGAGGAUCACCCAUGUGGGAAUAAUCCAGAGAGAG [Parity 3 - Jieux - Same State NG 1] (Eterna round: R96, puzzle: Same State NG 1)		158				
GAGAGAGGGUGAGGAUAUUUAGUGAUAAUGAUGGGAGAAGGCACAGACAUGAGGAUCACCCAUGUGGGAAUAAUCCAGAGAGAG [Parity 10 - Jieux - Same State NG 1] (Eterna round: R96, puzzle: Same State NG 1)	145	92.7	232			
GAGCCAGUCCGAGGAUAUUCAUAUACAUGAGGAUCACCCAUGUAGGCUCAGAAAAGAGAGCCUUGGGAGAAGGCGGACUGGCUC [Xeonanisa<<4] (Eterna round: R96, puzzle: Same State NG 2)	8.38	27.3	50.8			
GAGGCACAUGAGGAUCACCCAUGUGGGCGGAACAUAGGAUAUCGCCAACAAUAAGCCCGGUGAGAAGGAUGAUGCC [Lexereat] (puzzle: Same State 1)				46.2	17.6	36.4
GAGGCACAUGAGGAUCACCCAUGUGGGUAGAACAUAGGAUAUCACCAACAAAUUACCCGGUGAGAAGGAUGAUGCC [Zalaarza] (puzzle: Same State 1)					151	
GAGGGAUGAGCGUAGGAUAUAGGAGGAGUGACAUGAGGAUCACCCAUGUGGUAUGAGGGAGGAUUCUAGAAGGACGCGGUAGAAG [JR_SS2_Sub064] (puzzle: Same State 2)				66.4	172	235
